From US10767162B2, “Methods for differentiation” (PRESIDENT AND FELLOWS OF HARVARD COLLEGE, priority 2014, dated 2020)

Assays:
[1] = tested on: ES cell line that constitutively over-expressed the transcription factor MyoD; test: Skeletal muscle differentiation efficiency of MyoD ES cells, myosin heavy chain (MHC) immunostaining; assay type: cell-based, mouse
From the text: FIG. 2A depicts a differentiation time course of ES cells to skeletal muscle when exposed to low serum vs high serum conditions. […] LIF was removed at Day 0. Low serum was then initiated at different starting times beginning with Day 0. Cells were then fixed and immunostained for myosin heavy chain (MHC) expression. Differentiating cells in high serum were continuously split to prevent overgrowth. FIG. 2B depicts a comparison of differentiation efficiency generated by two types of defined media (N2B27) and 20% KOSR, low serum media (2% horse serum+insulin), and high serum media (15% FBS). Cells were removed from standard ES media (LIF and serum) and incubated in the specified media starting from Day 0 to Day 4. Continuation of LIF (1000 U/ml) or addition of Bmp4 (10 ng/ml) results in a strong block to muscle differentiation.
To probe the effect of the cell cycle on differentiation an ES cell line was used that constitutively over-expressed the transcription factor MyoD driven off an EF1alpha promoter (5) activated by tamoxifen-induced Cre recombination. […]
However any implication of growth factor effects through the manipulation of serum can be fraught with the inconsistencies and complexities of serum. […] Use of both media in ES cells led to activation of MyoD and terminal myogenesis similar to the 2% low serum media, with some improvement (FIG. 2B; assessed on Day 4). […]

[2] = tested on: Hnf4α-overexpressing ES cells; test: Hepatoblast-like differentiation of Hnf4α-overexpressing ES cells, alphafetoprotein (AFP) expression; assay type: cell-based; settings: added to growth factor-free media; day 4
From the text: FIGS. 13A-13B depict hepatoblast-like cells. […] Alpha-fetoprotein mRNA expression after 4 days in media of different growth factor content. FIG. 13B depicts a time course of gene expression for hepatic lineage factors and hepatocyte markers in growth factor-free (N2B27) media.
One essential lineage specifying factor for hepatocytes is hepatic nuclear factor 4α (Hnf4α)(6). Switching of Hnf4α-overexpressing ES cells to growth factor-free or growth factor-reduced media led to the activation of a subset of hepatic genes. At day 0, LIF and doxycycline were removed and the media was either switched or kept to 15% FBS. By day 4, there were high levels of alphafetoprotein (AFP) that could be detected in the cells differentiated in the growth factor-free or growth factor-reduced media and less than 10% the level of AFP in cells in 15% FBS (FIG. 13A and FIG. 16). AFP expression could be confirmed by immunostaining. While this activation by growth factor withdrawal was similar to the pattern seen in previous cell types, there was an additional interesting point of variation compared to other lineages examined so far. […] Albumin production was also detected, as was Sox17, Pparα, Cdh3, Tbx3, Krt18, Hhex, Lrh1, C/EBPα, Hnf1a, and Hnf1b. […]
(§1) RNA isolation and qPCR. […] Quantitative PCR was performed using Bio-rad's SYBR™ green Supermix. […]

[3] = tested on: iNIL ES cells (Ngn2, Isl1, Lhx3); test: Spinal motor neuron differentiation of iNIL ES cells, beta-3 tubulin (Tubb3) expression; assay type: cell-based, mouse; settings: added back into growth factor-free media
From the text: FIGS. 11A-11B depict spinal motor neurons. […] FIG. 11B depicts a time course of gene expression for neuronal lineage factors and motor neuron terminal differentiation markers in growth factor-free (N2B27) media.
To generate spinal motor neurons, a mouse ES cell line that overexpressed a combination of three transcription factor lineage specifiers (Ngn2, Isl1, Lhx3) was used. This combination was previously shown to specify spinal motor neuron identity (4). These iNIL cells, as they are also called, upon doxycycline stimulation express the three transcription factors from a single open reading frame coupled by 2A peptides. Growth factor withdrawal was used as the method of cell cycle manipulation in the experiments described in this Example.
As expected from the results on skeletal muscle myotubes, neurons rapidly formed from ES cells upon switching to different types of growth factor-free media. […] Tubb3 expression was confirmed by immunostaining. When either of the ES cell growth factors LIF or Bmp4 were added back into growth factor-free media, there was a strong block on neuronal differentiation.
ESC differentiation. Twenty-four hours before starting, ESCs are trypsinized and spread out as monolayer onto gelatin in standard ES media. […]
as §1

B1: Bmp4: ES cell growth factor, promotes Id protein family expression (protein, UniProt P21275 293-408, looked up)
Bone morphogenetic protein 4: SPKHHPQRSRKKNKNCRRHSLYVDFSDVGWNDWIVAPPGYQAFYCHGDCPFPLADHLNSTNHAIVQTLVNSVNSSIPKACCVPTELSAISMLYLDEYDKVVLKNYQEMVVEGCGCR
MHC+ nuclei (differentiation) when added back to N2B27 ([1]; LIF 1000 U/ml or Bmp4 10 ng/ml added back to N2B27, Day 4): 0%
muscle differentiation ([1]; continuation of LIF (1000 U/ml) or addition of Bmp4 (10 ng/ml), Day 0 to Day 4): strong block
AFP expression [2]: did not reduce
neuronal differentiation [3]: strong block
